Measurements as given in article PMC4157346 (The Biochemical journal, 2013).

Tests used:
[1] = molecular target: CXCL8-(1-66) P32G mutant, 15N-labelled (human, 15N-labelled); experiment: NMR titration
[2] = molecular target: CXCL8-(1-66) truncated monomer (human); experiment: NMR titration

Question: Which results are given for LWTWFEDEFANATGMPPVEKDYSPCLVVTQTLNK [CXCR1 N-terminal domain peptide]?
Answer: Kd [1]: 11 ± 1 µM; Kd [2]: 12 ± 2 µM
